Publication PMC5698441, “Molecular basis of AKAP79 regulation by calmodulin” (Nature Communications, 2017)

Target: T1, biotin-CaM and GST-AKAP79 (1–153) (Homo sapiens, UniProt P0DP23)
T1 construct: made in house; host or cells: E. coli BL21 (DE3)
Test: alphascreen disruption of biotin-CaM / GST-AKAP79 (1–153) interaction
Assay type: binding
Settings: 20-mer scanning peptides at 100 nM; biotin-CaM 10 nM; 1 mM CaCl2, 20 mM HEPES pH 7.2; preincubation 1 h 22 °C; mean ± s.e.m., n = 5 (Fig. 2d)
Description: To examine whether this could correspond to the CaM-binding site in AKAP79, we used a complementary method - the amplified luminescent proximity homogenous assay (alpha)-screen technique-to scan the N-terminus of AKAP79 for sequences that could mediate interactions with CaM. […] We screened peptides derived from the N-terminus of AKAP79 for their ability to reduce alphascreen emission. […] The effect of each peptide at 100 nM concentration on CaM–AKAP79 (1–153) interaction is shown in Fig. 2d as log2 emission ratios (with/without peptide).
To determine whether these basic amino acids contribute to the interaction, we compared how effectively peptides of different lengths could disrupt CaM–AKAP79 interaction.
In general, assays were performed in 50 μL buffer consisting of 20 mM HEPES pH 7.2, 100 mM NaCl, 0.1% BSA, 1 mM EGTA, 5 mM MgCl2, 1 mM CaCl2. CaCl2 was excluded where appropriate.
To determine the K Ca for CaM binding to calcineurin and AKAP79, the CaCl2 concentration was varied to produce different free Ca^2+ concentrations on the basis of calculations using maxchelator[43]. After initial incubations, anti-GST acceptor beads (PerkinElmer) were added at 10 ng/μL. […] After 1 h further incubation with vigorous shaking in a thermomixer (1200 r.p.m.), light emission at 568 nm was measured following excitation with a 680 nm laser using a Mithras LB 940 (Berthold Technologies). […]

## D: 20-mer peptide of the AKAP79 N-terminus walk, positions 36-55 (CFKRRKKAAKALKPKAGSEA; UniProt P24588 36-55, looked up, fragment)
  alphascreen signal compared to untreated samples (emission ratio with/without peptide): did not
